Reference: publication PMC5677532 (Structure (London, England : 1993), 2017)
Values joined by “and” are separate entries in the source; they are usually repeats but may differ in a detail not shown here. Equal values may be shown once.

B1: Bsc4 S288C, N-terminally hexahistidine-tagged (natural protein, S. cerevisiae (strain S288C), UniProt P53841 1-131, looked up)
chain: MSIVLRKSNKKNKNCITSKFYTIHIIKISTPVFRAPIAIGESPYVEWSCLQVVFRKDMVTKKTTFAQLITRLNHFLCQALKRRDSKTYILCRTAVFGAMTPFSPRKSHINNKLPMQPRKKKIVIIYVVRFH
B2: Bsc4 S288C, C-terminally hexahistidine-tagged (natural protein, S. cerevisiae (strain S288C), UniProt P53841 2-131, looked up)
chain: SIVLRKSNKKNKNCITSKFYTIHIIKISTPVFRAPIAIGESPYVEWSCLQVVFRKDMVTKKTTFAQLITRLNHFLCQALKRRDSKTYILCRTAVFGAMTPFSPRKSHINNKLPMQPRKKKIVIIYVVRFH
B3: Bsc4 EC1118, C-terminally hexahistidine-tagged (natural protein, S. cerevisiae (strain EC1118), UniProt P53841 2-121, looked up)
chain: SIVLRKSNKKNKNCITSKFYTIHIIKISTPVFRAPIAIGESPYVEWSCLQVVFRKDMVTKKTTFAQLITRLNHFLCQALKRRDSKTYILCRTAVFGAMTPFSPRKSHINNKLPMQPRKKK

Key:
[1] = target: the molecule itself; assay: SEC
[2] = target: the molecule itself; assay: SEC; remark: listed apart in the source
[3] = target: the molecule itself; assay: SEC; remark: listed apart in the source
[4] = target: the molecule itself; assay: native MS
[5] = target: the molecule itself; assay: SEC; remark: listed apart in the source
[6] = target: the molecule itself; assay: native MS; remark: listed apart in the source

Row | Protein | binding result [1] | stoichiometry N [2] | stoichiometry N [3] | stoichiometry N [4] | stoichiometry N [5] | stoichiometry N [6]
1 | B1 | binds | – | – | – | – | –
2 | B2 | – | ≥ 2 | 2 | – | – | –
3 | B3 | – | ≥ 2 | – | 7 and 8 | 4 | 2 and 6
